Experimental data from the supplement of paper PMC12455559.
± gives the standard deviation of the averaged measurements.

Tests used:
[1] = PET hydrolysis, aromatic products released after 48 h (umol product/mg enzyme); higher = more PET depolymerization activity
In short: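 Candidate enzymes, made tagless by SUMO cleavage and purified on nickel beads, were added at 5 μg (50 μL) to 3.5 mg of either amorphous PET film or crystalline PET powder in 450 μL buffer. The sealed plates stood unshaken for 48 h at 40 or 60 °C. Activity on PET is the aromatic product found in the supernatant per mg enzyme, read at 260 and 280 nm against buffer blanks.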

[2] = purified protein yield per well (BCA); higher = higher soluble expression
In short: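 Candidate enzymes were expressed in E. coli C41(DE3) in 2 mL autoinduction cultures with 100 µg/mL kanamycin, at 37 °C for 2 h and then 18 °C for 40 h. Cells were lysed, and protein was bound to Ni-charged magnetic beads and released by SUMO protease cleavage on an OT-2 robot. The read-out is purified protein yield per well, measured with the Pierce Rapid Gold BCA kit. Values below 25 ug (0.1 mg/mL) are below the detection threshold.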

[3] = melting temperature (DSF); higher = more thermostable
In short: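 Enzymes made in E. coli C41(DE3) were nickel-bead purified and cut free with SUMO protease before testing. Differential scanning fluorimetry gave each melting temperature. For this, 5 μL 5X Sypro Orange was added to 45 μL enzyme (0 to 0.3 mg/mL) in sealed PCR plates, and a Bio-Rad CFX96 read fluorescence from 25 °C over 250 cycles of 0.3 °C each, ramping at 0.3 °C/s.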

[4] = substrate: cryPow, 40 °C, pH 4.5
[5] = substrate: cryPow, 40 °C, pH 5.5
[6] = substrate: cryPow, 40 °C, pH 6.5
[7] = substrate: cryPow, 40 °C, pH 7.5
[8] = substrate: cryPow, 60 °C, pH 4.5
[9] = substrate: cryPow, 60 °C, pH 5.5
[10] = substrate: cryPow, 60 °C, pH 6.5
[11] = substrate: cryPow, 60 °C, pH 7.5
[12] = substrate: aFilm, 40 °C, pH 4.5
[13] = substrate: aFilm, 40 °C, pH 5.5
[14] = substrate: aFilm, 40 °C, pH 6.5
[15] = substrate: aFilm, 40 °C, pH 7.5
[16] = substrate: aFilm, 60 °C, pH 4.5
[17] = substrate: aFilm, 60 °C, pH 5.5
[18] = substrate: aFilm, 60 °C, pH 6.5
[19] = substrate: aFilm, 60 °C, pH 7.5

Sequence: MASIVVPGSAAAADNPYQRGPNPTQASVAANRGTFATAETSVGGGNGFGGAKIYYPTDTSQGTFGAIAVVPGYTATWAAEGAWMGHWLSSFGFVVIGIDTNSRNDNDTARGTQLLAALDYLTQRSSVRARVDPNRLAVMGHSMGGGGAISAALRRPTLKAAIGNAPFSPSQNLSTMRVPTALLAGQRDGTVTPSLVSGYYNQIPASTEKMYLELTGAGHGFPTSNNSVATRKWVPWMKIFLDQDTRYQQFLCPLLDNTGISAYRSTCPLIPGDPAPGTTFSLAGSASGKCVDVPGGTQTNGAGLIIWPCRGVTNQRWAQTAAGELRIYDNAKCMDANASGQGARVTINSCHGGASQKWTVNTNGTVTNSASGRCLEAVGTADDAPVVVNTCNGGSGQTWAKRA [TEP164]
- PET hydrolysis [1, 4]: < 3
- PET hydrolysis [1, 5]: 7
- PET hydrolysis [1, 6]: 25
- PET hydrolysis [1, 7]: 31
- PET hydrolysis [1, 8]: < 3
- PET hydrolysis [1, 9]: < 3
- PET hydrolysis [1, 10]: < 3
- PET hydrolysis [1, 11]: < 3
- purified protein yield per well [2]: 192 µg
- melting temperature [3]: 64 C

Sequence: MIATIPDGSAAAAADDNPYQRGPDPTVASVAAQYGPFATAQITVPPGNGFNGGFIYYPTDTSHTYGAVAIVPGYTALFANEEAWMGPRLASFGFVVIGVETNSRNDYDTARGTQLLAALDYLTNSSAVRDRVDRNRLAVIGHSMGGGGSLYAATQRPSLKAAIGLAPFKPSGNLASDTVPTMIIGGINDTTVTPSYLDGLYPTLPAATPGAYLQLANADHLYFTRPNDIELRSQIEWLKIFVDNDARYTQFLCPSIKDTTGIARSNVKCSTIPSGGSTPPSSPPPVPSGPQRILAAQSGRCVDVPNATHNNGTRVQLYDCNGQANQQWTSTSSKQLTVYGNVCLDAAGSGNGAAVQIYSCNGQSNQQWNVNANGTITGVQSGRCLDVWGTGNGQQIQLWDCNGQANQRFSLS [TEP181]
- PET hydrolysis [1, 12]: < 3
- PET hydrolysis [1, 13]: < 3
- PET hydrolysis [1, 14]: < 3
- PET hydrolysis [1, 15]: < 3
- PET hydrolysis [1, 16]: < 3
- PET hydrolysis [1, 17]: < 3
- PET hydrolysis [1, 18]: < 3
- PET hydrolysis [1, 19]: < 3
- PET hydrolysis [1, 4]: 4.5 ± 0.71
- PET hydrolysis [1, 5]: 12.5 ± 0.71
- PET hydrolysis [1, 6]: 11 ± 1.4
- PET hydrolysis [1, 7]: < 3
- PET hydrolysis [1, 8]: < 3
- PET hydrolysis [1, 9]: < 3
- PET hydrolysis [1, 10]: < 3
- PET hydrolysis [1, 11]: < 3
- purified protein yield per well [2]: 249 µg
- melting temperature [3]: 50.2 C

Sequence: MLGALAIVGGTRPATGADNPYQRGPDPTPASVSAGRGTFATAQVSVGAGNGFGGGVIYYPTDTSQGTFGAIAVVPGYTATWAAEGAWMGHWLASYGFVVIGIDTNTRNDWDTARGTQLLAALDYLTQRSSVRDRVDATRTAVMGHSMGGGGAAYASLQRPSLKTSVGLAPFSPSQNLTTTRVPTMLLSGQNDGTVTPSSVQNLYNGIPAGVEKAYLELTGAGHGFPTSNNPTMMRTVIPWFKIFVDSDTRYTQFLCPLADSNGIRTYQSTCPLVPSTPPTTTTTPTSTTTTSTTSTTPTTTTTTPQPGGACSATYRTVNSWSGGYQGEVTVTAGTSAVTGWTVRWSLGSGQTISQVWNGTLTVDGPTASVRNVSYNGSLGANASTTFGFIGGGTPPTSTLSCTSP [ESM006]
- PET hydrolysis [1, 12]: < 3
- PET hydrolysis [1, 13]: < 3
- PET hydrolysis [1, 14]: < 3
- PET hydrolysis [1, 15]: < 3
- PET hydrolysis [1, 16]: < 3
- PET hydrolysis [1, 17]: < 3
- PET hydrolysis [1, 18]: < 3
- PET hydrolysis [1, 19]: < 3
- PET hydrolysis [1, 4]: < 3
- PET hydrolysis [1, 5]: 6.5 ± 0.71
- PET hydrolysis [1, 6]: 13 ± 1.4
- PET hydrolysis [1, 7]: 17.5 ± 6.4
- PET hydrolysis [1, 8]: < 3
- PET hydrolysis [1, 9]: < 3
- PET hydrolysis [1, 10]: < 3
- PET hydrolysis [1, 11]: < 3
- purified protein yield per well [2]: 577 µg
- melting temperature [3]: 63.1 C

Sequence: MLTITVATGSASAADNPYQRGPDPTRTSVTAVNGPFANTSVSVPTGYGFNGGRIYYPTDTSQGTFGAIAISPGYTALFSAELAWMGPWLASHGFVVIGIETNSRNDFDTARGTQLLAALDYLTQQSPVRDRVDPNRLAVAGHSMGGGGALSAATRRSSLKAVVGIAPYSPSSNLANDRVPTMIFAGQADTVVTPSYATGLYNSLPTTTESAYLEVAGADHGFMVGRSNPVMVRTMLPFVKMFIDNDARYSQFLCPLLDSSGVVTYRSTCPLLPSTPPTSTPTPTDPPTPTPTPTVPPGSASEIVGTQSSRCIDVPNASRNNGTRVQLYDCNKQTNQA [ESM121]
- PET hydrolysis [1, 12]: < 3
- PET hydrolysis [1, 13]: < 3
- PET hydrolysis [1, 14]: < 3
- PET hydrolysis [1, 15]: < 3
- PET hydrolysis [1, 16]: < 3
- PET hydrolysis [1, 17]: < 3
- PET hydrolysis [1, 18]: < 3
- PET hydrolysis [1, 19]: < 3
- PET hydrolysis [1, 4]: 5.5 ± 0.71
- PET hydrolysis [1, 5]: 15 ± 1.4
- PET hydrolysis [1, 6]: 11
- PET hydrolysis [1, 7]: 2.5 ± 3.5
- PET hydrolysis [1, 8]: < 3
- PET hydrolysis [1, 9]: < 3
- PET hydrolysis [1, 10]: < 3
- PET hydrolysis [1, 11]: < 3
- purified protein yield per well [2]: 268 µg
- melting temperature [3]: 58.9 C

Sequence: MMPSADAASTLADNPYQRGPDPTVASVAAAYGTFATAQLTVPPGNGFNGGSIYYPTDTSQTYGAVAIVPGYTARFADEEAWMGPRLASFGFVVIGVETNSRNDFDTARGTQLLAALDYLTNSSAVRDRVDRNRLAVIGHSMGGGGALVAADQRPSLKAAIGLAPYKPSGNLANNRVPTLILSGQNDTVVTPSYLDGLYPTLPAATPGAYILLSGADHLFFTRPNDIEMRSQIPWLKTFVDNDTRYSQFLCPTLKDTTSVARSTAKCSLIPSGGNPSTPPSSSSPSPSSPASSSPPPSGAKHIVGAQSGRCVDVPNSSRTNGTRVQLYDCHSGTNQQWTYTSSRQLTVYGSMCLDAAGSGNGAAVQIYSCNGQANQQWNVNSNGTISGVQSGRCLDVWGTNNGQQIQLYDCHGQANQRFSLS [TEP054]
- PET hydrolysis [1, 12]: 3
- PET hydrolysis [1, 13]: 8 ± 1.4
- PET hydrolysis [1, 14]: 9.5 ± 0.71
- PET hydrolysis [1, 15]: < 3
- PET hydrolysis [1, 16]: < 3
- PET hydrolysis [1, 17]: < 3
- PET hydrolysis [1, 18]: < 3
- PET hydrolysis [1, 19]: < 3
- PET hydrolysis [1, 4]: 14 ± 4.2
- PET hydrolysis [1, 5]: 24 ± 2.8
- PET hydrolysis [1, 6]: 35
- PET hydrolysis [1, 7]: 18 ± 2.8
- PET hydrolysis [1, 8]: 2 ± 2.8
- PET hydrolysis [1, 9]: 7 ± 1.4
- PET hydrolysis [1, 10]: 7.5 ± 2.1
- PET hydrolysis [1, 11]: 1.5 ± 2.1
- purified protein yield per well [2]: 297 µg
- melting temperature [3]: 60.7 C
